In PMC6624275:

Biological target: Hen egg-white lysozyme (Hewl) (hen) (UniProt P00698)
Sequence (P00698 19-147): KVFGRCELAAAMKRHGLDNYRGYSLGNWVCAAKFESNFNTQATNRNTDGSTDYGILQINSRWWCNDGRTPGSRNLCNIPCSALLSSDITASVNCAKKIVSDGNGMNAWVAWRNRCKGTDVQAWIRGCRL

Substance: recombinant Neisseria meningitidis Adhesin Complex Protein (rNm-ACP) (natural protein)
- reduction of Hewl (10 U/well)-mediated lysis of M. lysodeikticus cells (OD at 595 nm, 25 °C), rNm-ACP 6-180 pmol/well, read at 2 h and 24 h: 80%

Substance: recombinant Dichelobacter nodosus Adhesin Complex Protein (rDn-ACP) (from UniProt A5EV15 1-230) (natural protein)
- reduction of Hewl (10 U/well)-mediated lysis of M. lysodeikticus cells (OD at 595 nm, 25 °C), rDn-ACP 3-90 pmol/well, read at 2 h and 24 h: 100%
